{"source": "patent US20260263563A1", "about": "“Method of Treatment of a Thoracolumbar Deformity in a Human Subject with Achondroplasia” (Ascendis Pharma Growth Disorders A/S, priority 2023, published 2026)", "origin": "cited, not measured here", "details": "in vivo; cited from earlier work", "note": "Positions of bridges follow the written chain, without caps; N, C: chain ends. No end group written: not given here.", "data": [{"substance": "Vosoritide (PGQEHPNARKYKGANKKGLSKGCFGLKLDRIGSMSGLGC; disulfide 23-39)", "values": [{"measurement": "reported t½", "result": "about 28 minutes"}]}]}
